Assay results as given in patent US20120301461A1 (Merck Sharp & Dohme, published 2012).

Columns and labels:
[1] = target: T1, murine PCSK9, V5- and His-tagged (mPCSK9v5His) (murine, UniProt Q80W65 35-694); assay: kinetic constants of 1B20 Fab; method not named at the table (presumably SPR as in Example 6)
T1 construct: also called mouse PCSK9; not shown: V5 and His tags

[2] = target: T1, murine PCSK9, V5- and His-tagged …; assay: cell-based or functional assay
[3] = target: T1, murine PCSK9, V5- and His-tagged …; assay: SPR (Biacore 2000), Fab captured on anti-Fab IgG, PCSK9 in flow; mean N=3
Method: Anti-Fab IgG (Human specific) (Sigma, catalog #I5260) was covalently coupled to surfaces 1 and 2 of a Sensor Chip CM5 via primary amine groups, using the immobilization wizard with the “Aim for immobilization” option using Biacore™ Amine Coupling Kit (cat #BR-1000-50. A target immobilization of 5000 RU was specified. The wizard uses a 7 minute activation with a 1:1 mixture of 100 mM NHS (N-Hydroxysuccinimide) and 400 mM EDC (1-ethyl-3-(3-dimethylaminopropyl)-carbodiimide), injects the ligand in several pulses to achieve the desired level, then deactivates the remaining surface with a 7 minute pulse of ethanolamine.
Each Fab was captured by flowing a 500 ng/ml solution at 5 or 10 μl/min for 1-1.5 minutes to reach a target RL for an Rₘₐₓ of 100-150 RU for the reaction. 5-10 concentrations of hPCSK9v5His or mPCSK9v5His antigens were flowed across the surface at 30 μl/minute for 3-4 minutes. 15-60 minutes dissociation time was allowed before regeneration of the Anti-Fab surface with a 30 second pulse of 10 mM glycine pH 2.0.

[4] = target: T1, murine PCSK9, V5- and His-tagged …; assay: SPR (Biacore 2000), IgG captured on goat anti-human IgG, PCSK9 in flow; mean N=2
Method: A goat Anti-Human IgG (Caltag, catalog #H10700) was covalently coupled to surfaces 1 and 2 of a Sensor Chip CM5 via primary amine groups, using the immobilization wizard with the “Aim for immobilization” option using Biacore™ Amine Coupling Kit (cat #BR-1000-50. A target immobilization of 5000 RU was specified. The wizard uses a 7 minute activation with a 1:1 mixture of 100 mM NHS (N-Hydroxysuccinimide) and 400 mM EDC (1-ethyl-3-(3-dimethylaminopropyl)-carbodiimide), injects the ligand in several pulses to achieve the desired level, then deactivates the remaining surface with a 7 minute pulse of ethanolamine.
IgG was captured by flowing a 10 nM solution at 10 μl/min for 1-1.5 minutes to reach a target RL for an Rₘₐₓ of 100-150 RU for the reaction. 5-10 concentrations of hPCSK9v5His or mPCSK9v5His antigens were flowed across the surface at 30 or 60 μl/minute for 4 minutes. 15-60 minutes dissociation time was allowed before regeneration of the Anti-IgG surface with a 60 second pulse of 10 mM Glycine pH 1.7.

[5] = target: T2, human PCSK9, V5- and His-tagged (hPCSK9v5His) (human, UniProt Q8NBP7 31-692); assay: SPR (Bio-Rad ProteOn), Fab against human PCSK9-V5-His
T2 construct: Recombinant secreted protein; Peptides 31-49 (prodomain) and 153-; also called wt-hPCSK9; wt-PCSK9; not shown: V5 and His tags
T2 sequence (Q8NBP7 31-692 limits assumed): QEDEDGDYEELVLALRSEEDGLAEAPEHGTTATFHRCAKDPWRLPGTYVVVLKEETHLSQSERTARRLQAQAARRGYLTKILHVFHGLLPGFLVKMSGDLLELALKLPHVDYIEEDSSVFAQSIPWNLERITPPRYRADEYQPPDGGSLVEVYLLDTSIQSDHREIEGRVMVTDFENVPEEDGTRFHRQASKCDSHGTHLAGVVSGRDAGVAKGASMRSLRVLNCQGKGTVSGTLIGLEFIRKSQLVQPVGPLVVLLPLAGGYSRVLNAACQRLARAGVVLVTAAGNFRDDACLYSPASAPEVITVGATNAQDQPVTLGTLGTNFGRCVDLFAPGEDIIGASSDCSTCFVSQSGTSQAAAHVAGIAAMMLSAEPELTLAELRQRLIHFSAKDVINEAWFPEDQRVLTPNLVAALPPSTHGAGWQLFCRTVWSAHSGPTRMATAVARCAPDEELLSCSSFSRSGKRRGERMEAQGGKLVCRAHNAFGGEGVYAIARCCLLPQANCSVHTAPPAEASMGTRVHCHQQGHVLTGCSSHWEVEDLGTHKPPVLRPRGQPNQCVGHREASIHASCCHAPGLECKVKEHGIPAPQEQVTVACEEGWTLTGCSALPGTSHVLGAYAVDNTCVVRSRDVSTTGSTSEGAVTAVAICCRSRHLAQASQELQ

T1 sequence (Q80W65 35-694 limits assumed): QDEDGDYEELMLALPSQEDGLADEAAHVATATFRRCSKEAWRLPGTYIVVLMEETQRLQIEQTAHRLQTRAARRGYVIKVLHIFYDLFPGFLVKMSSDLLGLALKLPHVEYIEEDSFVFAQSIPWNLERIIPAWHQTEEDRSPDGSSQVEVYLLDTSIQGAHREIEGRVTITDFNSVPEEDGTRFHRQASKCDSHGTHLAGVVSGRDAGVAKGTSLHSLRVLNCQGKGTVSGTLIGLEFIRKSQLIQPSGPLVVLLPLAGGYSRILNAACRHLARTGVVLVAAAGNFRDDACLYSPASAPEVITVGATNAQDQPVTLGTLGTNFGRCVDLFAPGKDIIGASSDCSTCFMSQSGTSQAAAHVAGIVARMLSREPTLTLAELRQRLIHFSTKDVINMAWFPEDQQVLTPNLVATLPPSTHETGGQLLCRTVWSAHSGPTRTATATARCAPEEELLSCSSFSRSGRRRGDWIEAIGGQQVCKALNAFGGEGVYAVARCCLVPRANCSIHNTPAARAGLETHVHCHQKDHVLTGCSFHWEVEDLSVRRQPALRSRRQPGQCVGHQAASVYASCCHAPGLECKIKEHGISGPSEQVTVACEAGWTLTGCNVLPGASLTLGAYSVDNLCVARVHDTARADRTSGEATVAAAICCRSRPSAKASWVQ

| Kd [5] | Binder | further results |
| --- | --- | --- |
|  | 1B20 Fab (Fab, V domains shown) VH: QVQLVQSGAEVKKPGESLKISCKGSGYSFTNYWISWVRQMPGKGLEWMGIIYPGDSYTNYSPSFQGQVTISADKSISTAYLQWSSLKASDTAMYYCARDYWYKPLFDIWGQGTLVTVSS VL: not shown | Ka [1]: 2e+09 M⁻¹; Kd [1]: 0.51 nM; koff [1]: 7.18e-05 s⁻¹; kon [1]: 141000 M⁻¹ s⁻¹; IC50, Exopolar assay (PCSK9-dependent loss of cellular LDL uptake) [2]: 152 nM |
|  | m2CX1D05 Fab (Fab, V domains shown, also called Fab 1D05; mPCSK9 2CX1D05 Fab) VH: QVQLVQSGAEVKKPGSSVKVSCKASGGTFNSHAISWVRQAPGQGLEWMGGINPILGIANYAQKFQGRVTITADESTSTAYMELSSLRSEDTAVYYCARHYEIQIGRYGMNVYYLMYRFASWGQGTLVTVSS VL: DIQMTQSPSSLSASVGDRVTITCRASQGIRSALNWYQQKPGKAPKLLIYNGSTLQSGVPSRFSGSGSGTDFTLTISSLQPEDFAVYYCQQFDGDPTFGQGTKVEIKR | Kd [3]: 3.35 nM; IC50, inhibition of PCSK9-dependent loss of cellular LDL uptake (Exopolar assay, HEK cells, PCSK9 5 ug/ml) [2]: 97 nM |
|  | 1D05 IgG2m4 (antibody, V domains shown, also called M2CX1D05 (IgG); IgG 1D05) VH: QVQLVQSGAEVKKPGSSVKVSCKASGGTFNSHAISWVRQAPGQGLEWMGGINPILGIANYAQKFQGRVTITADESTSTAYMELSSLRSEDTAVYYCARHYEIQIGRYGMNVYYLMYRFASWGQGTLVTVSS VL: DIQMTQSPSSLSASVGDRVTITCRASQGIRSALNWYQQKPGKAPKLLIYNGSTLQSGVPSRFSGSGSGTDFTLTISSLQPEDFAVYYCQQFDGDPTFGQGTKVEIKR | Kd [4]: 3.2 nM; IC50, inhibition of PCSK9-dependent loss of cellular LDL uptake (Exopolar assay, HEK cells, PCSK9 5 ug/ml) [2]: 85 nM |
| 1.52 nM | 1D05 Fab variant M48L (Fab, V domains shown, Tested as a Fab, with only the heavy chain mutated) VH: QVQLVQSGAEVKKPGSSVKVSCKASGGTFNSHAISWVRQAPGQGLEWLGGINPILGIANYAQKFQGRVTITADESTSTAYMELSSLRSEDTAVYYCARHYEIQIGRYGMNVYYLMYRFASWGQGTLVTVSS VL: DIQMTQSPSSLSASVGDRVTITCRASQGIRSALNWYQQKPGKAPKLLIYNGSTLQSGVPSRFSGSGSGTDFTLTISSLQPEDFAVYYCQQFDGDPTFGQGTKVEIKR |  |
| 1.95 nM | 1D05 Fab variant M48V (Fab, V domains shown, Tested as a Fab, with only the heavy chain mutated) VH: QVQLVQSGAEVKKPGSSVKVSCKASGGTFNSHAISWVRQAPGQGLEWVGGINPILGIANYAQKFQGRVTITADESTSTAYMELSSLRSEDTAVYYCARHYEIQIGRYGMNVYYLMYRFASWGQGTLVTVSS VL: DIQMTQSPSSLSASVGDRVTITCRASQGIRSALNWYQQKPGKAPKLLIYNGSTLQSGVPSRFSGSGSGTDFTLTISSLQPEDFAVYYCQQFDGDPTFGQGTKVEIKR |  |
| 2.13 nM | 1D05 Fab variant N50T (Fab, V domains shown, Tested as a Fab, with only the light chain mutated) VH: QVQLVQSGAEVKKPGSSVKVSCKASGGTFNSHAISWVRQAPGQGLEWMGGINPILGIANYAQKFQGRVTITADESTSTAYMELSSLRSEDTAVYYCARHYEIQIGRYGMNVYYLMYRFASWGQGTLVTVSS VL: DIQMTQSPSSLSASVGDRVTITCRASQGIRSALNWYQQKPGKAPKLLIYTGSTLQSGVPSRFSGSGSGTDFTLTISSLQPEDFAVYYCQQFDGDPTFGQGTKVEIKR |  |
| 2.06 nM | 1D05 Fab variant M48A (Fab, V domains shown, Tested as a Fab, with only the heavy chain mutated) VH: QVQLVQSGAEVKKPGSSVKVSCKASGGTFNSHAISWVRQAPGQGLEWAGGINPILGIANYAQKFQGRVTITADESTSTAYMELSSLRSEDTAVYYCARHYEIQIGRYGMNVYYLMYRFASWGQGTLVTVSS VL: DIQMTQSPSSLSASVGDRVTITCRASQGIRSALNWYQQKPGKAPKLLIYNGSTLQSGVPSRFSGSGSGTDFTLTISSLQPEDFAVYYCQQFDGDPTFGQGTKVEIKR |  |
| 2.58 nM | 1D05 Fab variant N50Y (Fab, V domains shown, Tested as a Fab, with only the light chain mutated) VH: QVQLVQSGAEVKKPGSSVKVSCKASGGTFNSHAISWVRQAPGQGLEWMGGINPILGIANYAQKFQGRVTITADESTSTAYMELSSLRSEDTAVYYCARHYEIQIGRYGMNVYYLMYRFASWGQGTLVTVSS VL: DIQMTQSPSSLSASVGDRVTITCRASQGIRSALNWYQQKPGKAPKLLIYYGSTLQSGVPSRFSGSGSGTDFTLTISSLQPEDFAVYYCQQFDGDPTFGQGTKVEIKR |  |
| 3.42 nM | 1D05 Fab variant N50D (Fab, V domains shown, Tested as a Fab, with only the light chain mutated) VH: QVQLVQSGAEVKKPGSSVKVSCKASGGTFNSHAISWVRQAPGQGLEWMGGINPILGIANYAQKFQGRVTITADESTSTAYMELSSLRSEDTAVYYCARHYEIQIGRYGMNVYYLMYRFASWGQGTLVTVSS VL: DIQMTQSPSSLSASVGDRVTITCRASQGIRSALNWYQQKPGKAPKLLIYDGSTLQSGVPSRFSGSGSGTDFTLTISSLQPEDFAVYYCQQFDGDPTFGQGTKVEIKR |  |
| 1.13 nM | 1D05 Fab variant M48L/M109L/M115L (Fab, V domains shown, Tested as a Fab, with only the heavy chain mutated) VH: QVQLVQSGAEVKKPGSSVKVSCKASGGTFNSHAISWVRQAPGQGLEWLGGINPILGIANYAQKFQGRVTITADESTSTAYMELSSLRSEDTAVYYCARHYEIQIGRYGLNVYYLLYRFASWGQGTLVTVSS VL: DIQMTQSPSSLSASVGDRVTITCRASQGIRSALNWYQQKPGKAPKLLIYNGSTLQSGVPSRFSGSGSGTDFTLTISSLQPEDFAVYYCQQFDGDPTFGQGTKVEIKR |  |
| 1.45 nM | 1D05 Fab variant H99Y (Fab, V domains shown, Tested as a Fab, with only the heavy chain mutated) VH: QVQLVQSGAEVKKPGSSVKVSCKASGGTFNSHAISWVRQAPGQGLEWMGGINPILGIANYAQKFQGRVTITADESTSTAYMELSSLRSEDTAVYYCARYYEIQIGRYGMNVYYLMYRFASWGQGTLVTVSS VL: DIQMTQSPSSLSASVGDRVTITCRASQGIRSALNWYQQKPGKAPKLLIYNGSTLQSGVPSRFSGSGSGTDFTLTISSLQPEDFAVYYCQQFDGDPTFGQGTKVEIKR |  |
| 2.01 nM | 1D05 Fab variant H32Y (Fab, V domains shown, Site-directed mutant of 1D05, tested as a Fab, with only the heavy chain mutated) VH: QVQLVQSGAEVKKPGSSVKVSCKASGGTFNSYAISWVRQAPGQGLEWMGGINPILGIANYAQKFQGRVTITADESTSTAYMELSSLRSEDTAVYYCARHYEIQIGRYGMNVYYLMYRFASWGQGTLVTVSS VL: DIQMTQSPSSLSASVGDRVTITCRASQGIRSALNWYQQKPGKAPKLLIYNGSTLQSGVPSRFSGSGSGTDFTLTISSLQPEDFAVYYCQQFDGDPTFGQGTKVEIKR |  |
| 0.615 nM | 1D05 Fab variant N50Q (Fab, V domains shown, Tested as a Fab, with only the light chain mutated) VH: QVQLVQSGAEVKKPGSSVKVSCKASGGTFNSHAISWVRQAPGQGLEWMGGINPILGIANYAQKFQGRVTITADESTSTAYMELSSLRSEDTAVYYCARHYEIQIGRYGMNVYYLMYRFASWGQGTLVTVSS VL: DIQMTQSPSSLSASVGDRVTITCRASQGIRSALNWYQQKPGKAPKLLIYQGSTLQSGVPSRFSGSGSGTDFTLTISSLQPEDFAVYYCQQFDGDPTFGQGTKVEIKR |  |
